Experimental findings from the supplement of paper PMC9112550, “Optimization of the antimicrobial peptide Bac7 by deep mutational scanning” (BMC Biology, 2022) are described below.

This data set has as its system Escherichia coli TOP10. The data set can be described thus: shrunken log2 fold change of peptide-encoding DNA abundance (4.5 h post-induction vs induction); higher = less antimicrobial activity (less host growth inhibition). To be noted: time post-induction: 4.5 h; library: site-saturation at positions 5, 18, 19, 20.
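Note: peptides expressed intracellularly from a pBAD plasmid library in pooled LB shake-flask culture, induced with 0.3% L-arabinose, DNA abundance read by NGS, three biological replicates, DESeq2 with apeglm shrinkage.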

Regarding RRIRRRPPRLPRPRPRPAMAPRP, the “shrunken log2 fold change” value came out at 0.342. For RRIRDRPPRLPRPRPRPRLDPRP, the “shrunken log2 fold change” value stood at 0.173.

As for RRIRERPPRLPRPRPRPMGPPRP, the “shrunken log2 fold change” value is -0.0976. With RRIRTRPPRLPRPRPRPNQDPRP, the “shrunken log2 fold change” value is -0.308. As for RRIRMRPPRLPRPRPRPQVAPRP, the “shrunken log2 fold change” value turned out to be 0.0435. With RRIRKRPPRLPRPRPRPFGRPRP, the “shrunken log2 fold change” value was -0.209. RRIRIRPPRLPRPRPRPFNVPRP: the “shrunken log2 fold change” value was -0.217. Consider RRIRRRPPRLPRPRPRPQNMPRP, for which the “shrunken log2 fold change” value is -0.472.

As to RRIRYRPPRLPRPRPRPDQWPRP, the “shrunken log2 fold change” value is -0.103.

RRIRTRPPRLPRPRPRPATIPRP: the “shrunken log2 fold change” value is -0.0446.

Consider RRIRIRPPRLPRPRPRPVEYPRP, for which the “shrunken log2 fold change” value is -0.116. In the case of RRIRLRPPRLPRPRPRPEAMPRP, the “shrunken log2 fold change” value was determined as 0.284. For the sequence RRIRFRPPRLPRPRPRPLAQPRP, the “shrunken log2 fold change” value turned out to be 0.097. For RRIRFRPPRLPRPRPRPKRFPRP, the “shrunken log2 fold change” value was determined as 0.0111. RRIRTRPPRLPRPRPRPSNNPRP: the “shrunken log2 fold change” value was -0.639. Turning to RRIRVRPPRLPRPRPRPHMLPRP, the “shrunken log2 fold change” value was -0.311. On to RRIRPRPPRLPRPRPRPPAGPRP, for which the “shrunken log2 fold change” value was found to be 0.506. On to RRIRCRPPRLPRPRPRPRNTPRP, for which the “shrunken log2 fold change” value came to 0.855. Turning to RRIRIRPPRLPRPRPRPFCDPRP, the “shrunken log2 fold change” value is -0.0745.

With RRIRHRPPRLPRPRPRPGWVPRP, the “shrunken log2 fold change” value was found to be 0.0965.

For the sequence RRIRHRPPRLPRPRPRPWVWPRP, the “shrunken log2 fold change” value worked out at 0.296. Turning to RRIRFRPPRLPRPRPRPTKNPRP, the “shrunken log2 fold change” value was -0.0239. With RRIRNRPPRLPRPRPRPEQYPRP, the “shrunken log2 fold change” value is -0.153. On to RRIRLRPPRLPRPRPRPVRQPRP, for which the “shrunken log2 fold change” value worked out at 0.569.

In the case of RRIRYRPPRLPRPRPRPPILPRP, the “shrunken log2 fold change” value is -0.498. For the sequence RRIRYRPPRLPRPRPRPDANPRP, the “shrunken log2 fold change” value was -0.114. Take RRIRCRPPRLPRPRPRPLVIPRP: the “shrunken log2 fold change” value is -0.401.

As for RRIRFRPPRLPRPRPRPSVKPRP, the “shrunken log2 fold change” value was -0.347. The value for RRIRDRPPRLPRPRPRPLYTPRP was -0.181; that for RRIRKRPPRLPRPRPRPASMPRP was 0.116; that for RRIRIRPPRLPRPRPRPEMDPRP was -0.277. RRIRTRPPRLPRPRPRPNSWPRP: the “shrunken log2 fold change” value is -0.413. Turning to RRIRQRPPRLPRPRPRPCRWPRP, the “shrunken log2 fold change” value is -0.0062. The value for RRIRWRPPRLPRPRPRPCAFPRP was 0.176. As for RRIRVRPPRLPRPRPRPWQMPRP, the “shrunken log2 fold change” value was -0.00669. Regarding RRIRRRPPRLPRPRPRPWDVPRP, the “shrunken log2 fold change” value was -0.149.

For the sequence RRIRGRPPRLPRPRPRPEEIPRP, the “shrunken log2 fold change” value is 0.842. Regarding RRIRIRPPRLPRPRPRPEVSPRP, the “shrunken log2 fold change” value came to 0.068. Take RRIRERPPRLPRPRPRPIHIPRP: the “shrunken log2 fold change” value amounted to 0.0108. With RRIRQRPPRLPRPRPRPDQVPRP, the “shrunken log2 fold change” value was -0.00133. For RRIRMRPPRLPRPRPRPLYMPRP the value was -0.222; for RRIRYRPPRLPRPRPRPYPCPRP, -0.268.

On to RRIRHRPPRLPRPRPRPCDRPRP, for which the “shrunken log2 fold change” value was -0.239.

Consider RRIRGRPPRLPRPRPRPVTSPRP, for which the “shrunken log2 fold change” value came to 0.203. For RRIRSRPPRLPRPRPRPSREPRP the value was -0.173; for RRIRSRPPRLPRPRPRPAIPPRP, -0.139.

For the sequence RRIRTRPPRLPRPRPRPFEIPRP, the “shrunken log2 fold change” value was found to be 0.0711. With RRIRSRPPRLPRPRPRPKIFPRP, the “shrunken log2 fold change” value is -0.0746. RRIRDRPPRLPRPRPRPSAFPRP: the “shrunken log2 fold change” value is 0.124. In the case of RRIRYRPPRLPRPRPRPAMMPRP, the “shrunken log2 fold change” value was determined as 0.0997. Take RRIRWRPPRLPRPRPRPAPNPRP: the “shrunken log2 fold change” value turned out to be 3.12. Regarding RRIRHRPPRLPRPRPRPHLIPRP, the “shrunken log2 fold change” value was -0.097. The value for RRIRRRPPRLPRPRPRPLNTPRP was -0.244. With RRIRARPPRLPRPRPRPWVDPRP, the “shrunken log2 fold change” value is -0.0331. Regarding RRIRLRPPRLPRPRPRPQPFPRP, the “shrunken log2 fold change” value is -1.07. In the case of RRIRFRPPRLPRPRPRPSYMPRP, the “shrunken log2 fold change” value was -1.21. RRIRLRPPRLPRPRPRPHNEPRP: the “shrunken log2 fold change” value was -0.497. The value for RRIRSRPPRLPRPRPRPLRTPRP was 0.787; that for RRIRSRPPRLPRPRPRPGIPPRP was -0.00461; that for RRIRNRPPRLPRPRPRPCSEPRP was -0.231. For RRIRPRPPRLPRPRPRPPPRPRP the value was 0.91; for RRIRRRPPRLPRPRPRPLTVPRP, 0.0344; for RRIRQRPPRLPRPRPRPKGMPRP, 0.0157. Turning to RRIRGRPPRLPRPRPRPCERPRP, the “shrunken log2 fold change” value came out at 0.013. Take RRIRGRPPRLPRPRPRPHTLPRP: the “shrunken log2 fold change” value was -0.22. Turning to RRIRKRPPRLPRPRPRPFCYPRP, the “shrunken log2 fold change” value is -0.14. Take RRIRRRPPRLPRPRPRPESLPRP: the “shrunken log2 fold change” value was 0.0493. The value for RRIRIRPPRLPRPRPRPATLPRP was -0.559; that for RRIRDRPPRLPRPRPRPAQGPRP was 0.00228; that for RRIRPRPPRLPRPRPRPHWHPRP was -0.124. Turning to RRIRSRPPRLPRPRPRPSDKPRP, the “shrunken log2 fold change” value is -0.351.

Turning to RRIRWRPPRLPRPRPRPLLTPRP, the “shrunken log2 fold change” value is 0.324. Turning to RRIRGRPPRLPRPRPRPTKAPRP, the “shrunken log2 fold change” value was determined as 1.03.

Turning to RRIRNRPPRLPRPRPRPVDYPRP, the “shrunken log2 fold change” value was -0.0368. Take RRIRQRPPRLPRPRPRPMSGPRP: the “shrunken log2 fold change” value is 0.076. For the sequence RRIRERPPRLPRPRPRPGHDPRP, the “shrunken log2 fold change” value was -0.449. On to RRIRWRPPRLPRPRPRPIQSPRP, for which the “shrunken log2 fold change” value came to 0.245.

As for RRIRWRPPRLPRPRPRPYKLPRP, the “shrunken log2 fold change” value was -0.327. In the case of RRIRWRPPRLPRPRPRPLWPPRP, the “shrunken log2 fold change” value was 0.275. The value for RRIRVRPPRLPRPRPRPTGHPRP was 0.0149; that for RRIRMRPPRLPRPRPRPSDLPRP was -0.035. In the case of RRIRSRPPRLPRPRPRPKRKPRP, the “shrunken log2 fold change” value turned out to be 0.458. RRIRPRPPRLPRPRPRPQTCPRP: the “shrunken log2 fold change” value was found to be 0.111. With RRIRSRPPRLPRPRPRPCLIPRP, the “shrunken log2 fold change” value is -0.197.

On to RRIRLRPPRLPRPRPRPYQQPRP, for which the “shrunken log2 fold change” value was -0.18. As for RRIRQRPPRLPRPRPRPNRNPRP, the “shrunken log2 fold change” value is -0.658.

With RRIRFRPPRLPRPRPRPIQYPRP, the “shrunken log2 fold change” value was -0.451. As to RRIRHRPPRLPRPRPRPGLWPRP, the “shrunken log2 fold change” value turned out to be 0.0565. The value for RRIRTRPPRLPRPRPRPAFAPRP was 0.282. Take RRIRQRPPRLPRPRPRPDHKPRP: the “shrunken log2 fold change” value is -0.0609. Consider RRIRRRPPRLPRPRPRPPFIPRP, for which the “shrunken log2 fold change” value worked out at 0.299. On to RRIRCRPPRLPRPRPRPYETPRP, for which the “shrunken log2 fold change” value turned out to be 0.023.

On to RRIRTRPPRLPRPRPRPILAPRP, for which the “shrunken log2 fold change” value was determined as 0.00499. As to RRIRNRPPRLPRPRPRPVKWPRP, the “shrunken log2 fold change” value is -0.286. Turning to RRIRCRPPRLPRPRPRPQSCPRP, the “shrunken log2 fold change” value turned out to be 0.0547. With RRIRWRPPRLPRPRPRPMMLPRP, the “shrunken log2 fold change” value came out at 0.309.

In the case of RRIRCRPPRLPRPRPRPSGIPRP, the “shrunken log2 fold change” value is -0.154. As to RRIRFRPPRLPRPRPRPHYPPRP, the “shrunken log2 fold change” value was -0.178. Regarding RRIRTRPPRLPRPRPRPKNQPRP, the “shrunken log2 fold change” value is -0.274. As to RRIRDRPPRLPRPRPRPDIMPRP, the “shrunken log2 fold change” value was determined as 0.0348.

For RRIRVRPPRLPRPRPRPACGPRP, the “shrunken log2 fold change” value is 0.122. For RRIRIRPPRLPRPRPRPRCQPRP, the “shrunken log2 fold change” value was 0.00087.

In the case of RRIRDRPPRLPRPRPRPVEDPRP, the “shrunken log2 fold change” value amounted to 0.429.

With RRIRNRPPRLPRPRPRPHSDPRP, the “shrunken log2 fold change” value worked out at 0.0373.

As to RRIRSRPPRLPRPRPRPVLSPRP, the “shrunken log2 fold change” value turned out to be 0.0825.

For RRIRIRPPRLPRPRPRPENLPRP, the “shrunken log2 fold change” value is -0.0595. In the case of RRIRIRPPRLPRPRPRPNPMPRP, the “shrunken log2 fold change” value is -0.169. RRIRKRPPRLPRPRPRPKQNPRP: the “shrunken log2 fold change” value is 0.706. The value for RRIRIRPPRLPRPRPRPPYQPRP was 2.02; that for RRIRFRPPRLPRPRPRPQELPRP was -0.0341; that for RRIRRRPPRLPRPRPRPKRKPRP was 0.099. As to RRIRDRPPRLPRPRPRPTDHPRP, the “shrunken log2 fold change” value is -0.0425.

As to RRIRERPPRLPRPRPRPCVMPRP, the “shrunken log2 fold change” value was -0.41. The value for RRIRWRPPRLPRPRPRPGKYPRP was -0.227. For RRIRVRPPRLPRPRPRPYMIPRP the value was -0.904. For RRIRPRPPRLPRPRPRPYKTPRP, the “shrunken log2 fold change” value came out at 0.001.

As to RRIRMRPPRLPRPRPRPIGHPRP, the “shrunken log2 fold change” value was found to be 0.0299. For the sequence RRIRKRPPRLPRPRPRPWPCPRP, the “shrunken log2 fold change” value was 0.161.

RRIRRRPPRLPRPRPRPREVPRP: the “shrunken log2 fold change” value was 0.442. Regarding RRIRSRPPRLPRPRPRPFVVPRP, the “shrunken log2 fold change” value was -0.0648. For RRIRGRPPRLPRPRPRPGFFPRP, the “shrunken log2 fold change” value worked out at 0.542.

With RRIRKRPPRLPRPRPRPFYLPRP, the “shrunken log2 fold change” value is -0.154. On to RRIRLRPPRLPRPRPRPHHAPRP, for which the “shrunken log2 fold change” value is -0.058.

Regarding RRIRMRPPRLPRPRPRPDPSPRP, the “shrunken log2 fold change” value is -0.0334. Take RRIRIRPPRLPRPRPRPESEPRP: the “shrunken log2 fold change” value was -0.0338.
